Data reported in article PMC3281653 (The Journal of Biological Chemistry, 2011).
Where two headings read alike, the source gives them in different places. Each block holds one molecule with its values, some of them ahead of it.

What was measured:
[1] = target: RanGAP1-SUMO1/UBC9 (human) (UniProt P46060)
[2] = target: RanGAP1-SUMO1/UBC9 (human) (UniProt P46060); remark: listed apart in the source
[3] = target: UBC9 (human, UniProt P63279); test: crystal structure
Sequence of UBC9 (P63279 whole entry): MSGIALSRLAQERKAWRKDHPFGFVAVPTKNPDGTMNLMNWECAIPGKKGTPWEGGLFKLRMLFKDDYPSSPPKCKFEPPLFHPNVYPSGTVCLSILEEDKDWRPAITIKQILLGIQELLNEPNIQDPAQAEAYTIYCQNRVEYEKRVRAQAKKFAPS

Sequence of RanGAP1-SUMO1/UBC9 (human) (P46060 419-578, chain 1 of 3): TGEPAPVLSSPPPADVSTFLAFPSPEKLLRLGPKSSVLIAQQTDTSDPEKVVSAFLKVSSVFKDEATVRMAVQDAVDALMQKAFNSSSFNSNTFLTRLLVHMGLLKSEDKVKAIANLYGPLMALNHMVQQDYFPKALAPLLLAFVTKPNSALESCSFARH
Sequence of RanGAP1-SUMO1/UBC9 (human) (P63165 18-97, chain 2 of 3, further chain): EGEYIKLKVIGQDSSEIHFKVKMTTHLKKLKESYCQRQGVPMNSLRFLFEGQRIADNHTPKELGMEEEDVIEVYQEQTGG
Sequence of RanGAP1-SUMO1/UBC9 (human) (P63279 whole entry, chain 3 of 3, further chain): as the sequence (P63279 whole entry) above

protease protection from SENP1: protection of RanGAP1-SUMO1 against that by IR1 [1]: 16 fold
Molecule: IR1-M-IR2 (RanBP2 residues 2631–2771) (from UniProt P49792 2631-2771) (domain or fragment)

protease protection from SENP1: protection of RanGAP1-SUMO1 against that by IR1 [2]: 144 fold
Molecule: IR2SIM-IR1_(II–V) (domain or fragment)

binding result [3]: binds
B1: IR1 (RanBP2 residues 2631–2695) (domain or fragment)
chain: DVLIVYELTPTAEQKALATKLKLPPTFFCYKNRPDYVSEEEEDDEDFETAVKKLNGKLYLDGSEK
